These results are taken from patent US6342219.

The test addresses VEGF:Flk-1 complex (VEGF associated with sFlk-1) (human; mouse) (UniProt P15692). The experiment in a line: capture ELISA; biotinylated sFlk-1 complexed with VEGF titrated onto antibody-coated wells; concentration giving 50% maximal binding; * extrapolated value.

Chain of A4.6.1 (mouse anti-human VEGF monoclonal antibody from Genentech) (VH): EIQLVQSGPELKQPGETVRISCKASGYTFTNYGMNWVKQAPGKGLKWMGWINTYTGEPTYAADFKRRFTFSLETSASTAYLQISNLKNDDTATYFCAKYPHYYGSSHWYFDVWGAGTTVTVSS
Chain of A4.6.1 (mouse anti-human VEGF monoclonal antibody from Genentech) (VL): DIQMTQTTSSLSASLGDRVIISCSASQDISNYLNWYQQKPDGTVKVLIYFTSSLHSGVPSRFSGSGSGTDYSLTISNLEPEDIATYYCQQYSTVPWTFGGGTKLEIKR
Chain of VEGF:Flk-1 complex (VEGF associated with sFlk-1) (human; mouse) (P15692 other isoform, or with tags, fused parts or gaps limits assumed, chain 1 of 2): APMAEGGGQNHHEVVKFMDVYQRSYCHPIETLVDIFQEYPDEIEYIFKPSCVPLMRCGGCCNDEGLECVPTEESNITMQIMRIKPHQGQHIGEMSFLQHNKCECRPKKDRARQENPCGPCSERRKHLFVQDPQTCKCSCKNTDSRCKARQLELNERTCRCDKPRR
Chain of VEGF:Flk-1 complex (VEGF associated with sFlk-1) (human; mouse) (P35918 20-762 limits assumed, chain 2 of 2, further chain): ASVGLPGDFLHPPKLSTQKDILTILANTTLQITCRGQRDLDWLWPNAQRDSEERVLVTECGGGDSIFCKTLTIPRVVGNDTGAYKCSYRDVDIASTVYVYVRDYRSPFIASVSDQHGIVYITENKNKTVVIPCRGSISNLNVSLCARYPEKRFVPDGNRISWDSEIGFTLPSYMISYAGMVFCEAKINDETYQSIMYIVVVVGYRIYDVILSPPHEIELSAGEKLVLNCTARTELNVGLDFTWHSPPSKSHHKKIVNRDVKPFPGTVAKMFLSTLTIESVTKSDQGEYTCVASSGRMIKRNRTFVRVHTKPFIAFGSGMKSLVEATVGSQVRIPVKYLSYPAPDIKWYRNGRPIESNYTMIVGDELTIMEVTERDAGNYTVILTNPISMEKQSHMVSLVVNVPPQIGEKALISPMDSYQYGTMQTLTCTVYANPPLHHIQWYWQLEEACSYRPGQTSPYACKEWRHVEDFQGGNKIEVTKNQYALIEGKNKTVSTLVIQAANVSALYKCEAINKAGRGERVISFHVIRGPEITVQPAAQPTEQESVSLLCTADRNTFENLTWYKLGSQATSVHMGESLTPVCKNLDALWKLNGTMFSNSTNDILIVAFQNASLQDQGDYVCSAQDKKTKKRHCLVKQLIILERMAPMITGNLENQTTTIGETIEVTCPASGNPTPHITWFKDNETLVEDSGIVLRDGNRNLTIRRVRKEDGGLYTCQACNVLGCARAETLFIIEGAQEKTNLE

In general, EC50 refers to the midpoint of the concentration-response curve. “A4.6.1 (mouse anti-human VEGF monoclonal antibody from Genentech)”: the half-maximal effective concentration (EC50) was 500 nM.
